Test results reported in patent publication US6323395A, “Nucleotide sequences of maize and soybean β-Ketoacyl-Acyl Carrier Protein Synthase II and their use in the regulation of fatty acid content of oil” (Dow AgroSciences LLC, priority 1998, dated 2001).
Like-named read-outs stand apart in the source and are kept apart here.

How the values were obtained:
[1] = test system: KAS II (soybean and maize KAS II expressed in E. coli); assay: Synthase assay with cerulenin, condensation of [2-14C]malonyl-CoA with acyl-ACP; format: biochemical; conditions: cerulenin 50 μM
Description: Malonyl CoA-ACP transacylase, hereafter MTA, was purified from E. coli as described by Alberts et al. (1969) Methods in Enzymology, 14:50-53. Transacylase reactions were performed in 100 μL of reaction mixture [100 mM KH2 PO4, pH 6.5, 100 μM ACP, 100 μM malonyl CoA, 10 nCi [2-^4 C] malonyl CoA (43.1 Ci/mol), and 2 mM dithiothreitol (DTT). ACP was incubated with an equal volume of 20 mM DTT for 15 min before being added to the reaction mixture. Reactions were started by adding 10 μL of either enzyme alone or enzyme that had been incubated for 15 min with an inhibitor and allowed to proceed for 5 min at 23° C. […] Pellets were washed 3× with 5% perchloric acid before being resuspended in 500 µL KH2 PO4 buffer and counted using scintillation. KAS II activity was measured by modifying the method of Garwin et al. (1980) J. Biological Chem. 255:11949-11956. […] The toluene layer (300 μL) was added to 5 mL Aquasol (NEN, Boston, Mass.) and incorporated [2-^4 ] malonyl CoA was determined by scintillation counting.
For enzymatic analysis of E coli expressed soybean and maize KAS II, substrates were made as follows: ACP (Sigma Chemical Co.) was further purified by three cycles of precipitation at pH 4.0 using 10% (v/v) acetic acid followed by resolubilization in 50 mM Tris-HCl, pH 8.0. […] Incorporated malonyl-CoA was extracted into toluene prior to quantitating by liquid scintillation counting. […]

KAS I = assay: as above; format: biochemical; conditions: cerulenin at concentrations of 5 μM or greater
[2] = test system: maize β-Ketoacyl-Acyl Carrier Protein Synthase II (KAS II), purified from seed; assay: KAS II activity assay, Km from double reciprocal plots; format: biochemical; conditions: cerulenin-Sepharose fraction, substrate not named, condensing activity towards C16:0-ACP
Description: (§1) Malonyl CoA-ACP transacylase, hereafter MTA, was purified from E. coli as described by Alberts et al. (1969) Methods in Enzymology, 14:50-53. Transacylase reactions were performed in 100 μL of reaction mixture [100 mM KH2 PO4, pH 6.5, 100 μM ACP, 100 μM malonyl CoA, 10 nCi [2-^4 C] malonyl CoA (43.1 Ci/mol), and 2 mM dithiothreitol (DTT). ACP was incubated with an equal volume of 20 mM DTT for 15 min before being added to the reaction mixture. Reactions were started by adding 10 μL of either enzyme alone or enzyme that had been incubated for 15 min with an inhibitor and allowed to proceed for 5 min at 23° C. Reactions, which were terminated by adding 400 μL of ice cold 5% (v/v) perchloric acid, were then placed on ice for 20 min before being centrifuged for 5 min at 14,000×g. Pellets were washed 3× with 5% perchloric acid before being resuspended in 500 µL KH2 PO4 buffer and counted using scintillation. KAS II activity was measured by modifying the method of Garwin et al. (1980) J. Biological Chem. 255:11949-11956. […] The toluene layer (300 μL) was added to 5 mL Aquasol (NEN, Boston, Mass.) and incorporated [2-^4 ] malonyl CoA was determined by scintillation counting. […]

[3] = test system: soybean β-Ketoacyl-Acyl Carrier Protein Synthase II (KAS II), purified from seed; assay: as above; format: biochemical; conditions: cerulenin-Sepharose fraction, substrate not named, condensing activity towards C16:0-ACP
Description: as §1

[4] = target: C16:0-ACP (palmitoyl-acyl carrier protein) made from bought ACP (Escherichia coli (strain K12)) (UniProt P0A6A8)
[5] = target: C10:0-ACP (decanoic acid acyl-acyl carrier protein) made from bought ACP (Escherichia coli (strain K12)) (UniProt P0A6A8)
[6] = target: C16:0-ACP (palmitoyl-acyl carrier protein) made from bought ACP (Escherichia coli (strain K12)) (UniProt P0A6A8); remark: listed apart in the source
Target sequence in this assay (P0A6A8 2-78 limits assumed): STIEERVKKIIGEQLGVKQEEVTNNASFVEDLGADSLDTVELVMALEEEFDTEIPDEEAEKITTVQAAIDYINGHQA

[7] = target: the molecule itself; assay: gel filtration on Superdex 200: native molecular weight 82,000±5,000 against a subunit size of 46 kDa by SDS-PAGE
Description: The molecular mass of native KAS II was determined by gel filtration using a Superdex 200 column (Pharmacia LKB Biotechnology, Inc.) equilibrated in 25 mM KH_2PO_4 (pH7.0). The column was calibrated using protein standards (BioRAD, Hercules, Calif.), which included blue dextran, thyroglobin (M_r, 670,000), bovine gamma globulin (Mr_r, 158,000), chicken ovalbumin (M_r, 44,000), equine myoglobin (M_r, 17,000), vitamin B-12 (M_r, 1,350).

[8] = target: C10:0-ACP (decanoic acid acyl-acyl carrier protein) made from bought ACP (Escherichia coli (strain K12)) (UniProt P0A6A8); remark: listed apart in the source
[9] = target: C16:0-ACP (palmitoyl-acyl carrier protein) made from bought ACP (Escherichia coli (strain K12)) (UniProt P0A6A8); remark: listed apart in the source
Target sequence in this assay (P0A6A8 2-78 limits assumed): as above

Chain of C10:0-ACP (decanoic acid acyl-acyl carrier protein) made from bought ACP (Escherichia coli (strain K12)) (P0A6A8 2-78 limits assumed): as above

C/C=C/C/C=C/CCC(=O)[C@H]1O[C@H]1C(N)=O [cerulenin]
inhibition of KAS II [1]: about 50%
inhibition of KAS I activity (KAS I): completely inhibits

palmitoyl-ACP [C16:0-ACP]
Km [2]: 14.1 µM
Km [3]: 18 µM

soybean β-Ketoacyl-Acyl Carrier Protein Synthase II purified from soybean seed (enzyme)
Km [4]: 18 µM

B1: first soybean KAS II expressed in E. coli from pDAB393 (enzyme)
chain: MAVALQPTQEVTTIKKPPTKQRRVVVTGLGVVTPLGHEPDIFYNNLLDGVSGISEIETFDCAEYPTRIAGEIKSFSTDGWVAPKLSKRMDKFMLYMLTAGKKALVDGGITDDVMDELNKDKCGVLIGSAMGGMKVFNDAIEALRISYKKMNPFCVPFATTNMGSAMLAMDLGWMGPNYSISTACATSNFCILNAANHIIRGEADVMLCGGSDAAIIPIGLGGFVACRALSQRNTDPTKASRPWDINRDGFVMGEGAGVLLLEELEHAKKRGATIYAEFLGGSFTCDAYHVTEPRPDGAGVILCIEKALAQSGVSKEDVNYINAHATSTPAGDLKEYQALMHCFGQNPKLRVNSTKSMIGHLLGAAGAVEAVATIQAIRTGWVHPNINLEKPDNGVDAKVLVGSKKERLDVKAALSNSFGFGGHNSSIIFAPYK
synthase activity: condensation of [2-14C]malonyl-CoA with C10:0-ACP to C12:0-ACP (counts per minute per minute) [5]: 207
synthase activity: condensation of [2-14C]malonyl-CoA with C16:0-ACP to C18:0-ACP (counts per minute per minute) [6]: 1930
binding result [7]: binds

B2: second soybean KAS II expressed in E. coli from pDAB394 (enzyme)
chain: MAVALQPTQEITTIKKPPTKQRRVVVTGLGVVTPLGHEPDIFYNNLLDGASGISEIETFDCAEYPTRIAGEIKSFSTDGWVAPKLSKRMDKFMLYMLTAGKKALVDGGITDDVMDELNKEKCGVLIGSAMGGMKVFNDAIEALRISYKKMKPFCVPFATTNMGSAMLAMDLGWMGPNYSISTACATSNFCILNAANHIIRGEADVMLCGGSDAAIIPIGLGGFVACRALSQRNTDPTKASRPWDINRDGFVMGEGAGVLLLEELEHAKERGATIYAEFLGGSFTCDAYHVTEPRPDGAGVILCIEKALAQSGVSKEDVNYINAHATSTPAGDLKEYQALMHCFGQNPELRVNSTKSMIGHLLGAAGGVAAVATIQAIRTGWVHPNINLENPDNGVDAKVLVGSKKERLDVKAALSNSFGFGGHNSSIIFAPY
synthase activity: condensation of [2-14C]malonyl-CoA with C10:0-ACP to C12:0-ACP (counts per minute per minute) [8]: 890
synthase activity: condensation of [2-14C]malonyl-CoA with C16:0-ACP to C18:0-ACP (counts per minute per minute) [9]: 2160

B3: maize β-Ketoacyl-Acyl Carrier Protein Synthase II purified from maize seed (enzyme)
chain: MAVALQAERSVIEKKKPDIKQRRVVVTGMGVVTPLGHDPDVFYNNLLDGVSGISEIERFDCSNFPTRIAGEIKSFSTDGWVAPKLAKRMDKFMLYLITAGKKALENGGLTEELRNELDKTRCGVLIGSAMGGMKVFNDAIEALRVSYKKMNPFCVPFATTNMGSAILAMDLGWMGPNYSISTACATSNFCILNAANHIRRGEADVMLCGGSDAPLIPIGLGGFVACRALSQRNSDPTKASRPWDMGRDGFVMGEGAGVLVLEELEHAKERGATIYAEFLGGSFTCDAYHMTEPHPEGRGIALCIEKALADAGVAREEINYVNAHATSTQAGDLKEYEAIVRCFRQNPQLRVNSTKSMTGHLIGAAGGIEAVASIQAIRTGWVHPNLNLENPEDTVDVGVLVGSQKERCEVKVALSNSFGFGGHNSSILFAPFK
Km [4]: 14.1 µM

B4: maize KAS II expressed in E. coli from pDAB388 (enzyme)
chain: MAVALQAERSVIEKKKPDIKQRRVVVTGMGVVTPLGHDPDVFYNNLLDGVSGISEIERFDCSNFPTRIAGEIKSFSTDGWVAPKLAKRMDKFMLYLITAGKKALENGGLTEELRNELDKTRCGVLIGSAMGGMKVFNDAIEALRVSYKKMNPFCVPFATTNMGSAILAMDLGWMGPNYSISTACATSNFCILNAANHIRRGEADVMLCGGSDAPLIPIGLGGFVACRALSQRNSDPTKASRPWDMGRDGFVMGEGAGVLVLEELEHAKERGATIYAEFLGGSFTCDAYHMTEPHPEGRGIALCIEKALADAGVAREEINYVNAHATSTQAGDLKEYEAIVRCFRQNPQLRVNSTKSMTGHLIGAAGGIEAVASIQAIRTGWVHPNLNLENPEDTVDVGVLVGSQKERCEVKVALSNSFGFGGHNSSILFAPFK
synthase activity: condensation of [2-14C]malonyl-CoA with C10:0-ACP to C12:0-ACP (counts per minute per minute) [8]: 734
synthase activity: condensation of [2-14C]malonyl-CoA with C16:0-ACP to C18:0-ACP (counts per minute per minute) [9]: 909
